Data as given in paper PMC2761005, “Three-Dimensional Structure of N-Terminal Domain of DnaB Helicase and Helicase-Primase Interactions in Helicobacter pylori” (PLoS ONE, 2009).

What was measured:
[1] = target: C-terminal domain (CTD) of H. pylori DnaG primase (H. pylori) (UniProt P56064); assay: SPR; Biacore 2000, 25°C; 750 RU of CTD of HpDnaG amine-coupled on a CM4 chip; helicase samples (10 µM) injected at 20 µl/min in 10 mM Hepes pH 7.4, 150 mM NaCl, 3 mM EDTA, 0.005% P20
[2] = target: the molecule itself; assay: SEC; Hi Load superdex-75 16/60 column, 20 mM Tris.Cl pH 7.5, 100 mM NaCl, 1 mM EDTA, 5 mM βME; mass deduced from a plot of gel filtration standards

Chain of C-terminal domain (CTD) of H. pylori DnaG primase (H. pylori) (P56064 whole entry, the tested form may be a part): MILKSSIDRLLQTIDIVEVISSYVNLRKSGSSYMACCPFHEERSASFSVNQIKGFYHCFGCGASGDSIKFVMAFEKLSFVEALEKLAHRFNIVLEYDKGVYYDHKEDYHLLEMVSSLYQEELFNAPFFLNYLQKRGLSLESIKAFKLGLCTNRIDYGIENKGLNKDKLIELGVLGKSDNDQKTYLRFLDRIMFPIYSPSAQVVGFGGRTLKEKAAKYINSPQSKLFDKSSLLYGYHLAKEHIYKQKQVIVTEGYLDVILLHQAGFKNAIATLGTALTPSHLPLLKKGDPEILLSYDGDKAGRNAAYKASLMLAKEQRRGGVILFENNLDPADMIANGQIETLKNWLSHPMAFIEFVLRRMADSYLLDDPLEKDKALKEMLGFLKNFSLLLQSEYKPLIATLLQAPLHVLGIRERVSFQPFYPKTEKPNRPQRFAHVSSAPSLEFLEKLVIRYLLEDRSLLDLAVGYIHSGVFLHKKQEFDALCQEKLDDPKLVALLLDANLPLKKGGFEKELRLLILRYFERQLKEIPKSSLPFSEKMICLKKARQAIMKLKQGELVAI

B1: N-terminal domain with longer linker (NTDL) of H. pylori DnaB helicase (residues 1-144) (domain or fragment)
chain: MDHLKHLQQLQNIERIVLSGIVLANHKIEEVHSVLEPSDFYYPPNGLFFEIALKLHEEDCPIDENFIRQKMPKDKQIKEEDLVAIFAASPIDNIEAYVEEIKNASIKRKLFGLANTIREQALESAQKSSDILGAVEREVYALLN
- Kd [1]: 110 nM

B2: N-terminal domain (NTD) of H. pylori DnaB helicase (residues 1-121) (domain or fragment, UniProt O25916 1-121, looked up)
chain: MDHLKHLQQLQNIERIVLSGIVLANHKIEEVHSVLEPSDFYYPPNGLFFEIALKLHEEDCPIDENFIRQKMPKDKQIKEEDLVAIFAASPIDNIEAYVEEIKNASIKRKLFGLANTIREQA
notes: Cloned NcoI/XhoI into pET 28a; also called NTD of HpDnaB; source: E. coli BL21 (DE3), purified (Ni-NTA, Superdex-75 gel filtration); not shown: His6, C-terminal, kept
- stoichiometry N [2]: 2

B3: H. pylori DnaB helicase, full length (enzyme)
chain: MDHLKHLQQLQNIERIVLSGIVLANHKIEEVHSVLEPSDFYYPPNGLFFEIALKLHEEDCPIDENFIRQKMPKDKQIKEEDLVAIFAASPIDNIEAYVEEIKNASIKRKLFGLANTIREQALESAQKSSDILGAVEREVYALLNGSTIEGFRNIKEVLESAMDLITENQRKGSLEVTGIPTGFVQLDNYTSGFNKGSLVIIGARPSMGKTSLMMNMVLSALNDDRGVAVFSLEMSAEQLALRALSDLTSINMHDLESGRLDDDQWENLAKCFDHLSQKKLFFYDKSYVRIEQIRLQLRKLKSQHKELGIAFIDYLQLMSGSKATKERHEQIAEISRELKTLARELEIPIIALVQLNRSLENRDDKRPILSDIKDSGGIEQDADIVLFLYRGYIYQMRAEDNKIDKLKKEGKIEEAQELYLKVNEERRIHKQNGSIEEAEIIVAKNRNGATGTVYTRFNAPFTRYEDMPIDSHLEEGQETKVDYDIVTT
- Kd [1]: 2250 nM
